Source: the supplement of paper PMC10567573

B1: MIA2 (parent)
chain: SVIEPVQESSFRSRKIAVEDENDL

Variants of: B1
Test: protein stability index of a GFP-peptide fusion (GPS, HEK-293T) (PSI 1-6); higher = more stable
Conditions: c terminus: a fixed tail appended
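Also: lentivirally expressed fusions sorted by FACS into six bins by GFP to DsRed ratio, PSI derived from sequencing read proportions per bin multiplied by bin number.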

Protein stability index, by site and new letter:
F11: R 5.67 | C 4.9 | W 5.44 | I 5.15 | K 5.4 | E 5.84 | P 5.08 | Y 5.26 | Q 4.71 | L 5.46 | T 5.86 | V 5.16 | N 5.62 | D 5.92 | G 5.28 | A 4.79 | S 5.26 | M 5.19 | H 5.37
Q7: T 5.32 | C 3.93 | I 4.93 | L 5.29 | E 5.25 | H 5.34 | V 5.28 | G 5.13 | K 4.98 | S 5.46 | F 4.46 | M 5.04 | N 4.82 | Y 5.21 | P 5.49 | D 5.25 | W 5.13 | R 4.92 | A 4.21
S10: R 5.02 | N 5.28 | H 5.77 | G 5.78 | W 4.72 | M 4.89 | I 4.28 | F 4.74 | Q 5.67 | A 5.49 | T 4.48 | L 4.72 | D 5.54 | P 5.02 | Y 4.81 | V 5.28 | K 5.54 | C 5.34 | E 5.27
E19: G 4.5 | D 5.03 | R 4.51 | I 4.25 | V 5.03 | F 4.53 | H 4.56 | Q 5.33 | A 5.13 | Y 4.67 | L 4.56 | P 5.32 | K 5.35 | C 4.62 | S 5.31 | W 4.15 | N 5.08 | M 4.62 | T 5.02
S9: G 5.08 | A 5.35 | C 5.09 | F 4.64 | W 4.86 | V 5.19 | H 4.98 | I 5.31 | Q 5.35 | K 5.44 | Y 5.25 | L 4.48 | N 5.09 | M 4.37 | T 5.19 | P 5.66 | E 5.05 | R 5.45 | D 5.35
V6: Y 4.91 | F 4.94 | M 5.46 | G 5.75 | Q 5.37 | D 5.65 | S 5.27 | K 5.62 | L 5.16 | H 5.48 | N 4.92 | R 5.27 | P 5.18 | E 5.76 | C 5.66 | I 5.34 | W 4.53 | T 5.39 | A 5.31
E8: Y 4.49 | H 5.02 | N 5.64 | L 5.02 | I 4.83 | G 5.28 | F 4.63 | A 5.28 | M 4.58 | D 4.48 | K 4.78 | R 4.79 | S 4.42 | Q 5.1 | T 4.52 | C 4.97 | P 5.27 | W 4.66 | V 5.14
E4: N 5.21 | R 5 | W 3.74 | M 4.9 | Q 4.7 | A 5.68 | C 5.08 | D 5.01 | G 5.01 | V 4.71 | Y 4.64 | I 4.62 | F 4.73 | P 5.37 | H 4.44 | S 5.25 | T 5.35 | K 5.03 | L 4.62
I16: V 5.41 | L 5.13 | D 5.68 | C 4.17 | T 5.37 | P 5.04 | H 4.28 | G 5.42 | A 4.72 | M 5.42 | F 5.12 | K 5.01 | S 5.45 | E 5.19 | Y 4.98 | W 4.66 | N 5.6 | Q 5.15 | R 5.22
P5: A 4.3 | K 4.38 | N 5.01 | S 5.03 | H 4.98 | R 5.13 | V 4.95 | F 3.31 | C 4.74 | T 5.3 | M 4.14 | I 3.56 | W 3.49 | Q 5.26 | E 4.79 | G 4.65 | Y 3.78 | L 3.56 | D 4.88
S13: Q 5.03 | H 5.25 | R 5.53 | N 5.61 | D 5.05 | M 4.86 | K 5.18 | Y 5.12 | T 5.66 | W 4.72 | P 5.18 | I 5.11 | L 5.19 | F 5.03 | V 5.23 | G 5.44 | A 5.65 | C 5.05 | E 5.3
E21: F 4.31 | A 4.83 | D 5.38 | C 4.32
V18: A 5.35 | W 5.16 | T 4.94 | G 5.18 | D 4.18 | P 5.32 | Q 5.15 | F 5.36 | Y 5.21 | C 5.03 | R 5.72 | H 5.36 | L 4.56 | K 5.63 | S 5.69 | M 4.43 | E 5.53 | I 5.3 | N 5.1
A17: T 5.09 | L 4.97 | W 4.92 | H 5.53 | M 5.55 | Q 5.44 | R 4.77 | F 5.05 | G 5.14 | N 5.45 | E 5.68 | S 4.86 | P 5.66 | C 4.81 | D 5.43 | Y 4.87 | K 5.59 | V 5.3 | I 5.05
D20: R 4.94 | E 5.72 | K 5.13 | P 3.94 | L 4.42 | Q 5.25 | H 4.35 | F 3.83 | I 4.64 | M 4.8 | G 5.21 | Y 4.18 | W 4.1 | T 5.38 | V 4.57 | N 5.57 | C 4.89 | A 4.63
I3: V 5.62 | W 5.13 | Q 4.57 | P 5.13 | Y 5.42 | S 4.84 | R 5.59 | T 5.6
R14: W 4.13 | N 5.75 | D 5.75 | S 5.13 | M 5.02 | P 5.4 | F 4.39 | C 5.08 | V 5.51 | T 5.31 | E 5.32 | G 5.55 | L 4.98 | I 5.04 | H 5.4 | Q 5.67 | A 5.53 | K 5.67 | Y 4.42
K15: E 5.69 | I 5.05 | F 5.03 | Y 5.29 | P 5.65 | Q 5.71 | N 5.67 | H 5.36 | L 5.14 | G 4.85 | C 5.2 | D 5.52 | T 5.11 | S 5.61 | A 5.63 | V 5.43 | M 5.11 | W 4.44 | R 5.43
R12: N 5.61 | K 5.42 | Q 5.44 | W 4.55 | T 5.46 | F 4.83 | I 5.12 | E 5.75 | P 6 | H 5.66 | Y 4.98 | C 4.82 | G 5.53 | M 5.41 | A 5.81 | D 5.6 | S 5.94 | L 5.22 | V 5.36
